Data reported in paper PMC9355564, “A network of cytosolic (co)chaperones promotes the biogenesis of mitochondrial signal-anchored outer membrane proteins” (eLife, 2022).
Ends that are not written are not given here.

T1: recombinant Sis1 (S. cerevisiae, UniProt P25294 1-352)
T1 construct: Sis1, yeast Hsp40 co-chaperone; also called Hsp40 co-chaperone Sis1; source: recombinantly expressed and purified
T1 sequence (looked up): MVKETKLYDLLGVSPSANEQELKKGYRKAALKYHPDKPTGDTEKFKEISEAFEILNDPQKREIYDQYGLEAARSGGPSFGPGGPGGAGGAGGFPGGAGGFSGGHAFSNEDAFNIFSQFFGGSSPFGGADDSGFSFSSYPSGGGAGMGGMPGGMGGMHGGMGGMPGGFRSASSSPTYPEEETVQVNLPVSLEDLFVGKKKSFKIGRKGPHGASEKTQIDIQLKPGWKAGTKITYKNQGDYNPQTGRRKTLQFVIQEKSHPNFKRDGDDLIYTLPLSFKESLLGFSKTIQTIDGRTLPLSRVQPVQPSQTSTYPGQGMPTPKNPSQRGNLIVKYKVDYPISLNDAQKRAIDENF

T2: GST-Tom20(35-183) (S. cerevisiae, UniProt P35180 35-183)
T2 construct: also called cytosolic domain of Tom20; source: expressed and purified as described earlier (Papić et al., 2013); not shown: GST, N-terminal, kept
T2 sequence (looked up): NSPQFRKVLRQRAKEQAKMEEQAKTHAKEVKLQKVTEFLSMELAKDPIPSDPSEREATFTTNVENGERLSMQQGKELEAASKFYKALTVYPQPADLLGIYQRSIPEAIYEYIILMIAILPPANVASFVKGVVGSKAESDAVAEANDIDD

B1: GST-Tom70(46-617) (domain or fragment, S. cerevisiae, UniProt P07213 46-617, looked up)
chain: KDEKKDTKDSQKETEGAKKSTAPSNPPIYPVSSNGEPDFSNKANFTAEEKDKYALALKDKGNQFFRNKKYDDAIKYYNWALELKEDPVFYSNLSACYVSVGDLKKVVEMSTKALELKPDYSKVLLRRASANEGLGKFADAMFDLSVLSLNGDFNDASIEPMLERNLNKQAMSKLKEKFGDIDTATATPTELSTQPAKERKDKQENLPSVTSMASFFGIFKPELTFANYDESNEADKELMNGLSNLYKRSPESYDKADESFTKAARLFEEQLDKNNEDEKLKEKLAISLEHTGIFKFLKNDPLGAHEDIKKAIELFPRVNSYIYMALIMADRNDSTEYYNYFDKALKLDSNNSSVYYHRGQMNFILQNYDQAGKDFDKAKELDPENIFPYIQLACLAYRENKFDDCETLFSEAKRKFPEAPEVPNFFAEILTDKNDFDKALKQYDLAIELENKLDGIYVGIAPLVGKATLLTRNPTVENFIEATNLLEKASKLDPRSEQAKIGLAQMKLQQEDIDEAITLFEESADLARTMEEKLQAITFAEAAKVQQRIRSDPVLAKKIQETLAKLREQGLM
notes: Tom70, cytosolic domain, residues 46-617; also called cytosolic domain of Tom70; source: expressed and purified as described earlier (Papić et al., 2013); not shown: GST, N-terminal, kept

What was measured:
recombinant Sis1 = target: T1, recombinant Sis1; assay: fluorescence polarisation; fluorescence anisotropy titration, 2 µM TAMRA-labeled peptide with increasing concentrations of Ssa1 or Sis1, 30 °C; Kd from hyperbolic regression of the difference in anisotropy; details: both partners purified
recombinant Ssa1 = target: T3, recombinant Ssa1 (S. cerevisiae, UniProt P10591 1-642); assay: as above; details: both partners purified
T3 construct: Ssa1, yeast cytosolic Hsp70 chaperone; also called Hsp70 Ssa1; source: recombinantly expressed and purified

GST-Tom70(46-617) = target: B1; assay: fluorescence polarisation; fluorescence anisotropy, 2 µM TAMRA-labeled peptide, 30 °C; single additions of 10 µM Ssa1, 30 µM Sis1, 10 µM GST-Tom70, GST, BSA or 1 mM ATP alone or in the indicated order; details: both partners purified
GST-Tom20(35-183) = target: T2, GST-Tom20(35-183); assay: pull-down; purified GST, GST-Tom20 or GST-Tom70 on glutathione sepharose beads blocked with 5% BSA, mixed with cleared in vitro translation reactions (yeast extract) of HA-tagged proteins; ATP added every 30 min; 20 mM Hepes, 100 mM NaCl, 1 mM MgCl2, pH 7.25; anti-HA blot; details: one partner purified
Ssa1-Mcr1(TMS) complex = target: T4, Ssa1-Mcr1(TMS) complex (S. cerevisiae, UniProt P10591 1-642; P36060 1-39, Tetramethylrhodamine (TAMRA), position not stated); assay: fluorescence polarisation; fluorescence anisotropy, 2 µM TAMRA-labeled peptide, 30 °C; single additions of 10 µM Ssa1, 30 µM Sis1, 10 µM GST-Tom70, GST, BSA or 1 mM ATP alone or in the indicated order; details: both partners purified
T4 construct: Ssa1, as m37; Mcr1 residues 1-39, as m36; also called substrate-chaperone complex; Ssa1/substrate complex; source: formed beforehand by adding 10 µM recombinant Ssa1 to 2 µM TAMRA-labeled Mcr1 peptide
T4 sequence (P10591 whole entry, the tested form may be a part, one chain of several): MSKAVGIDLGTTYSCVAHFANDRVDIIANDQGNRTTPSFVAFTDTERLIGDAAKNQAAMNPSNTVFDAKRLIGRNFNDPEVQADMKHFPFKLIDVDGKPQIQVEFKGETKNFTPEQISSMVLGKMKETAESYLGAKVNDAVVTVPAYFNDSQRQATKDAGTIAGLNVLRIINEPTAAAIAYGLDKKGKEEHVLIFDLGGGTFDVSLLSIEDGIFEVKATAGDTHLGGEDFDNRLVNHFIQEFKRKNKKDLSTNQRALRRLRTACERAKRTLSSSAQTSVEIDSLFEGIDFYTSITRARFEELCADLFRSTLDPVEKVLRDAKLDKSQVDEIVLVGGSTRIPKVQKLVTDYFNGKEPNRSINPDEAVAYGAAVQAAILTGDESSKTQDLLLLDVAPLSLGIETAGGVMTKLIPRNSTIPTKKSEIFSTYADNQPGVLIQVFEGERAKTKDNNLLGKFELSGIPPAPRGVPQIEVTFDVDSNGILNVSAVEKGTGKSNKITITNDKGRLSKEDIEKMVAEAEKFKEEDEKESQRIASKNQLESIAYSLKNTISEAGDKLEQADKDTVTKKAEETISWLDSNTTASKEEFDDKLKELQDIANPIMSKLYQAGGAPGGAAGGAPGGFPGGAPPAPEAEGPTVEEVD

T3 sequence (P10591 whole entry): as the sequence (P10591 whole entry, the tested form may be a part, one chain of several) above

| Kd (recombinant Sis1) | Kd (recombinant Ssa1) | binding result (GST-Tom70(46-617)) | fold binding to GST-Tom20 relative to GST-Tom70 (after normalising to GST) (GST-Tom20(35-183)) | binding result (Ssa1-Mcr1(TMS) complex) | Binder |
| --- | --- | --- | --- | --- | --- |
| 25.8 µM | 3.27 µM | binds | – | – | MFSRLSRSHSKALPIALGTVAIAAATAFYFANRNQHSFV (peptide, UniProt P36060 1-39, looked up, also: TAMRA label, position not given here, Mcr1, residues 1-39, contain the transmembrane segment; synthesis as in Jores et al., 2016; also called Mcr1(TMS); Mcr1-TMS peptide; source: synthetic peptide) [TAMRA-labeled Mcr1 peptide, residues 1-39] |
| 18.3 µM | 2.42 µM | – | – | – | MKSFITRNKTAILATVAATGTAIGAYYYYNQL (peptide, UniProt P07213 1-32, looked up, also: TAMRA label, position not given here, Tom70, residues 1-32, contain the transmembrane segment; synthesis as in Jores et al., 2016; also called Tom70(TMS); TMS-labelled peptide of Tom70; source: synthetic peptide) [TAMRA-labeled Tom70 peptide, residues 1-32] |
| – | – | – | 4 fold | – | Mcr1-3HA (full length) (natural protein, S. cerevisiae, UniProt P36060 1-302, looked up, Mcr1, S. cerevisiae, signal-anchored mitochondrial outer membrane protein (Mcr1mom is its outer membrane isoform); also called Mcr1-FL; yk-Mcr1-3HA; source: in vitro translated in yeast extract; not shown: 3HA, C-terminal, kept) MFSRLSRSHSKALPIALGTVAIAAATAFYFANRNQHSFVFNESNKVFKGDDKWIDLPISKIEEESHDTRRFTFKLPTEDSEMGLVLASALFAKFVTPKGSNVVRPYTPVSDLSQKGHFQLVVKHYEGGKMTSHLFGLKPNDTVSFKGPIMKWKWQPNQFKSITLLGAGTGINPLYQLAHHIVENPNDKTKVNLLYGNKTPQDILLRKELDALKEKYPDKFNVTYFVDDKQDDQDFDGEISFISKDFIQEHVPGPKESTHLFVCGPPPFMNAYSGEKKSPKDQGELIGILNNLGYSKDQVFKF |
| – | – | – | – | binds | B1 |
